Data reported in article PMC3845908 (Journal of the American Chemical Society, 2012).
Changes are numbered by the printed parent chain. In names and notes the source's numbering stands. Where two headings read alike, the source gives them in different places.

B1: Streptomyces lividans KcsA R64C, MTSL spin-labelled (natural protein, UniProt P0A334 1-160, looked up)
chain: MPPMLSGLLARLVKLLLGRHGSALHWRAAGAATVLLVIVLLAGSYLAVLAERGAPGAQLITYPCALWWSVETATTVGYGDLYPVTLWGRLVAVVVMVAGITSFGLVTAALATWFVGREQERRGHFVRHSEKAAEEAYTRTTRALHERFDRLERMLDDNRR
modifications: MTSL spin label on the cysteine at 64
B2: Streptomyces lividans KcsA F114C full length, MTSL spin-labelled (natural protein, UniProt P0A334 1-160, looked up)
chain: B1 chain with C64R, F114C
modifications: MTSL spin label on the cysteine at 114

Experiments:
[1] = molecular target: the molecule itself; assay: pulsed double electron-electron resonance
[2] = molecular target: the molecule itself; assay: pulsed double electron-electron resonance; remark: listed apart in the source

Protein	binding result [1]	binding result [2]
B1	binds	–
B2	–	binds
